# Results published in paper PMC9716232.
# Target: complement component 3b (C3b) (human) (UniProt P01024)
# Experiment: SPR; equilibrium: each FH sample injected at 0.0156-2 uM, in duplicate, over 1500 RUs of C3b amine-coupled on a Biacore CM5 sensor chip; fit to a 1:1 equilibrium model (Biacore software)
row,Substance,Kd [µM]
1,FH variant Arg53His (from UniProt P08603 19-1231) (natural protein),3.16
2,FH variant Arg175Pro (from UniProt P08603 19-1231) (natural protein),6.39
3,FH variant Arg567Gly (from UniProt P08603 19-1231) (natural protein),4.21
4,FH variant Arg1210Cys (from UniProt P08603 19-1231) (natural protein),1.95
5,control factor H (FH) (from UniProt P08603 19-1231) (natural protein),1.7
